One assay concerns the target T1, p34^cdc2 (Homo sapiens, UniProt P06493).
T1 construct: immunoprecipitated with an antibody to HA, and immunoblotted with antibodies to p34^cdc2 or HA; endogenous in cells; host or cells: HeLa
Description: Co-immunoprecipitation of survivin and p34cdc2 from HeLa cells. Format: binding. The following applies: asynchronously growing transfected HeLa cells. How it is done: The experimental procedures are the same as in A, except that asynchronously growing HeLa cells were transfected with HA-survivin or HA-survivin(T34A), immunoprecipitated with an antibody to HA, and immunoblotted with antibodies to p34^cdc2 or HA. W, whole HeLa cell extract.
(§1) Transfection experiments. For transient transfection, HeLa cells in C-6 tissue culture plates (Costar, Cambridge, Mass.) at ˜60-70% confluency, were incubated in 1 ml of serum-free OptiMEM medium (Life Technologies, Gaithersburg, Md.) for 20 min, and transfected with 2.5 μg of the various plasmid cDNAs plus 9 μl Lipofectamine (Life Technologies). After a 5 h incubation at 37° C., the mixture was aspirated and substituted with complete growth medium for 48-72 h. To generate stable YUSAC-2 transfectants, a survivin(T34A) cDNA was inserted into the HindIII-SpeI sites of the pTet-splice vector (Dr. D. Schatz, Yale University School of Medicine), downstream of the regulatory sequences of the Tet-resistance operon (TetO). YUSAC-2 cells were transfected with 0.8 μg pTet-T34A, 0.8 μg of the transactivation/selection plasmid ptTA-Neo and 5 μl Lipofectamine in 1 ml of OptiMem. […] Gated GFP-expressing cells were analyzed for DNA content by flow cytometry on a FACSort (Becton Dickinson, San Jose, Calif.) using a Cell Quest software. […]

The target of another assay is T2, Cdk2-cyclin E (Homo sapiens, UniProt P24941).
T2 construct: host or cells: baculovirus expression system
Description: In vitro kinase assay with Cdk2-cyclin E. It is filed as biochemical. The following applies: recombinant protein as substrate, control experiment, autoradiography. How it is done:
FIG. 1B. In vitro kinase assay. Wild type (WT) survivin, survivin(T34A) (T34A), or control (H1) were incubated with baculovirus-expressed p34^cdc2-cyclin B1 or cdk2-cyclin E in kinase buffer plus 10 μCi γ-^32P-ATP for 30 min at 30° C. Samples were separated by SDS gel electrophoresis and radioactive bands were visualized by autoradiography. Equal protein loading was confirmed by Coomassie blue staining of the gel.
as §1, with “(TetO).” for “(TetO). YUSAC-2 cells were transfected with 0.8 μg pTet-T34A, 0.8 μg of the transactivation/selection plasmid ptTA-Neo and 5 μl Lipofectamine in 1 ml of OptiMem.”

T1 sequence (P06493 whole entry): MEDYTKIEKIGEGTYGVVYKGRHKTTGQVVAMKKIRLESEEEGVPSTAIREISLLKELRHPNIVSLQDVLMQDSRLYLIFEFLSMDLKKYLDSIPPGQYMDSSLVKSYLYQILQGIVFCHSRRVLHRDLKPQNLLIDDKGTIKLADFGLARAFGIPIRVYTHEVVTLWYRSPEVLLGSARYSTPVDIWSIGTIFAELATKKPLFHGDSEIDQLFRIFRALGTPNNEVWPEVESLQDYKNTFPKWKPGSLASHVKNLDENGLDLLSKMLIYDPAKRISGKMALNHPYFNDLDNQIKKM

As for “survivin(T34A): dominant-negative, non-phosphorylatable survivin mutant with Thr34→Ala substitution, expressed from transfected cDNA (also HA- or GFP-tagged)”, the “p34^cdc2 in HA immunoprecipitates by Western blotting” value in the assay with p34^cdc2 is on record as “contained a prominent p34^cdc2 band”. In addition, the “phosphorylation by Cdk2-cyclin E” value in the assay with Cdk2-cyclin E is “did not phosphorylate”.

(Values after patent publication US7553821B2, “Methods for selectively modulating survivin apoptosis pathways” (Yale University, priority 2000, dated 2009).)
